The values below come from patent US20260201038A1 (CELLABMED, published 2026).

One assay has as its target T1, FCLTGALEVQVPEDP
T1 construct: 15-mer of human 4Ig B7-H3 on the peptide microarray, panel Ig-like-V type 1
T1 peptide: FCLTGALEVQVPEDP
Description: peptide microarray, 15-mers of human 4Ig B7-H3; panel Ig-like-V type 1. As to the method: (§1) It was confirmed that G2D IgG has linear epitopes since G2D was verified to recognize 4lg B7-H3 through western blot (FIG. 10a). Therefore, linear epitope mapping was conducted by Pepperprint GmbH (Germany). After preparing a peptide microarray from the 15 4lg B7-H3 amino acids with 14-amino acid overlaps, the antibodies binding to peptides were identified using secondary antibodies (FIG. 10b). As a result, it was confirmed that G2D IgG binds to a peptide having a sequence of EVQVP (FIG. 10c). EVQVP is located in the Ig-like V-type1 and Ig-like V-type2 domains of 4lg B7-H3 (FIGS. 10d and 10e). When the epitopes of the control antibody enoblituzumab were identified by the same method, it was confirmed that the epitopes include the sequence of GYPEAE (FIG. 10b), and GYPEAE is located in the Ig-like C2-type1 and Ig-like C2-type2 domains of 4lg B7-H3 (FIGS. 10d and 10e). As a result, it was confirmed that G2D IgG and the control antibody enoblituzumab have different epitopes.

Another assay concerns the target T2, LTGALEVQVPEDPVV
T2 construct: 15-mer of human 4Ig B7-H3 on the peptide microarray, panel Ig-like-V type 1
T2 peptide: LTGALEVQVPEDPVV
The assay is described as above. The procedure: as §1

The target of the next assay is T3, GALEVQVPEDPVVAL
T3 construct: 15-mer of human 4Ig B7-H3 on the peptide microarray, panel Ig-like-V type 1
T3 peptide: GALEVQVPEDPVVAL
The description is as above. As to the method:
as §1

Another assay addresses T4, WFCLTGALEVQVPED
T4 construct: 15-mer of human 4Ig B7-H3 on the peptide microarray, panel Ig-like-V type 1
T4 peptide: WFCLTGALEVQVPED
The assay is described as above. As to the method:
as §1

For a further assay, the target named is T5, LWFCLTGALEVQVPE
T5 construct: 15-mer of human 4Ig B7-H3 on the peptide microarray, panel Ig-like-V type 1
T5 peptide: LWFCLTGALEVQVPE
The description is as above. As to the method:
as §1

The next assay concerns the target T6, B7-DC (UniProt Q9BQ51 20-219, limits assumed).
T6 sequence (looked up): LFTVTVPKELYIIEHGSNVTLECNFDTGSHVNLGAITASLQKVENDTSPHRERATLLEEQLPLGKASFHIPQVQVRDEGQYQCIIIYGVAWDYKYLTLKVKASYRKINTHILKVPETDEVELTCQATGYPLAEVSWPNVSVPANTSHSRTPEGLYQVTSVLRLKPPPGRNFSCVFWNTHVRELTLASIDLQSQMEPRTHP
Description: indirect ELISA, B7-DC coated at 1 ug/mL, absorbance at 450 nm. The procedure: [The procedure below names another target; the source lists this target under the same test.] (§2) The binding ability of 2D IgG prepared in Example 2 for recombinant B7-H3 protein was investigated by indirect ELISA. For indirect ELISA, recombinant human 4lg B7-H3, recombinant human 2lg B7-H3 and recombinant mouse B7-H3 were diluted respectively to 1 μg/mL in 50 μL of PBS and adsorbed overnight onto a 96-well immunoplate (Corning, USA) by storing at 4° C. After reaction with a buffer solution containing 3% bovine serum albumin at room temperature for 1 hour, followed by washing 3 times with a buffer solution containing 0.5% Tween 20, each well was treated with 50 μL of the antibodies diluted serially (0.0001, 0.0003, 0.001, 0.003, 0.01, 0.03, 0.1, 0.3, 1, 3 and 10 nM). For antigen-antibody binding, the mixture was reacted at room temperature for 2 hours, and then washed 3 times with a buffer solution containing 0.5% Tween 20. After treating each well with 50 μL of anti-human immunoglobulin Fc-HRP antibodies (Jackson Immunoresearch, USA) diluted to 1:3,000, reaction was conducted at room temperature for 1 hour. […] As a result of measuring absorbance at 450 nm using a spectrophotometer (Biotek, USA), it was confirmed that 2D IgG binds to B7-H3, and the binding ability was in the order of 4lg B7-H3, 2lg B7-H3 and mouse B7-H3 (FIG. 2a). […]

Assay [1] concerns the target T7, ….
T7 sequence (peptide): EVQVPEDPVVALVGT
Description: peptide microarray, 15-mers of human 4Ig B7-H3; panel Ig-like-V type 1.

For assay [2], the target named is B7-H3 on human cancer cells (human) (UniProt Q5ZPR3). The assay can be described thus: flow cytometry on A172 brain tumor cells; control (secondary antibody only) < 25%.
The target of a further assay is B7-H1 (UniProt Q9NZQ7 19-239). Description: indirect ELISA, B7-H1 coated at 1 ug/mL, absorbance at 450 nm. As to the method: [The procedure below names another target; the source lists this target under the same test.] as §2
(In general: In an ELISA, binding on a coated surface is turned into a signal by an enzyme label.)

Assay [3] concerns the target B7-H3 on human cancer cells (human) (UniProt Q5ZPR3). Description: flow cytometry on MIA-PaCa2 pancreatic cancer cells; control (secondary antibody only) < 25%. For orientation: Flow cytometry measures light scatter and fluorescence of single cells or particles in a stream.
A further assay addresses T8, B7-H2 (UniProt O75144 19-256, limits assumed).
T8 sequence (looked up): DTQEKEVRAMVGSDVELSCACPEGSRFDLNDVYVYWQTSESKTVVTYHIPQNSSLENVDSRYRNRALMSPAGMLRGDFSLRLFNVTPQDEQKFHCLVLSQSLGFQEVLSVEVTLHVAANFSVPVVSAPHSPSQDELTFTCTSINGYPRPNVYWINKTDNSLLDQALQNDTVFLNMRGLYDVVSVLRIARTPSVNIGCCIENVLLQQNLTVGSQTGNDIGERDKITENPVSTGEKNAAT
The assay can be described thus: indirect ELISA, B7-H2 coated at 1 ug/mL, absorbance at 450 nm. As to the method:
[The procedure below names another target; the source lists this target under the same test.] as §2

The target in assay [4] is B7-H3 on human cancer cells (human) (UniProt Q5ZPR3). The assay can be described thus: flow cytometry on MDA-MB-231 breast cancer cells; control (secondary antibody only) < 5%.
Assay [5] has the same target. Description: flow cytometry on NCI-H1975 lung cancer cells; control (secondary antibody only) < 5%.
Assay [6] has the same target. Description: flow cytometry on A2780 ovarian cancer cells; control (secondary antibody only) < 5%.

Sequence of B7-H1 (Q9NZQ7 19-239 limits assumed): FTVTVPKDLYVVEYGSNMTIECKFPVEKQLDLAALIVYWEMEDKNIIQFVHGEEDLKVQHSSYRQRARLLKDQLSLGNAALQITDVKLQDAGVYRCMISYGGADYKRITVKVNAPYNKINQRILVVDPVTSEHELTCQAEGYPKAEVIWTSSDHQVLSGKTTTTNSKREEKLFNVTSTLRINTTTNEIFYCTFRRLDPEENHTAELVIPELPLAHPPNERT

B1: G2D IgG (antibody, V domains shown)
VH: QVQLVESGGGLVQPGGSLRLSCSASGFDFSSYPMVWVRQAPGKGLEYVSSINSGGSWTGYGAAVKGRATISRDNSKNTLYLQMNSLRAEDTATYYCARAYGAATIDAWGQGTTVTVSS
VL: SYELTQPPSVSVSPGQTARITCSGGSIGYGWYQQKAPGQAPVTVIYYNDRRPSGIPERFSGSKSGTTNTLTISGVQAEDEADYYCGSADSSSTYTGIFGGGTKLTVL
notes: The back-substitutions (L46T, S66K, V71N in VL); also called humanized 2D; G2D antibody
With B1, the “fluorescence intensity of the peptide spot” value worked out at 63 in the assay with FCLTGALEVQVPEDP; 154 with LTGALEVQVPEDPVV; 20 in the assay with GALEVQVPEDPVVAL; 24.8 with WFCLTGALEVQVPED; 17.3 with LWFCLTGALEVQVPE; 16 in [1]. Moreover, the binding result with B7-DC, with B7-H1 and in the assay with B7-H2 was “no binding (tested: 10 nM)” in each case. For the same molecule, the % of cells in the positive gate in [2] was over 95%; in assay [3] it was over 95%; in assay [4], over 95%; in [5], over 80%; in assay [6], over 95%.
